Measurements: PMC7452315, “Alternative Splicing of a Receptor Intracellular Domain Yields Different Ectodomain Conformations, Enabling Isoform-Selective Functional Ligands” (iScience, 2020)
Blank lines part the entries; values can stand above or below the molecule they belong to.

Columns and labels:
[1] = molecular target: TrkC-FL D5 (Homo sapiens) (UniProt Q16288); details: cited from earlier work
[2] = molecular target: TrkC ECD (Homo sapiens) (UniProt Q16288); details: cited from earlier work
[3] = molecular target: truncated TrkC.T1 receptor; assay: co-IP; HEK293 lysates expressing TrkC.T1, TrkC-FL or TrkC-Δ-ICD; immunoprecipitated with a pan-TrkC antibody; reducing and non-reducing SDS-PAGE; blotted with two anti-PDI mAbs or anti-pan-TrkC
[4] = molecular target: truncated TrkC.T1 receptor; assay: flow cytometry on cells; quantitative flow cytometry on live, non-permeabilised cells stably transfected with TrkC-FL or TrkC.T1; ligand at saturating concentration; read-out is fold-increase in mean fluorescence intensity over controls; NT-3-biotin detected with avidin-fluorescein, PTP-sigma with anti-human secondary
[5] = molecular target: T1, full-length TrkC (TrkC-FL) (UniProt Q16288 32-839); assay: cell-based or functional assay
[6] = molecular target: T1, full-length TrkC (TrkC-FL); assay: cell-based or functional assay; remark: listed apart in the source
[7] = molecular target: T1, full-length TrkC (TrkC-FL); assay: flow cytometry on cells; quantitative flow cytometry on live, non-permeabilised cells stably transfected with TrkC-FL or TrkC.T1; ligand at saturating concentration; read-out is fold-increase in mean fluorescence intensity over controls; NT-3-biotin detected with avidin-fluorescein, PTP-sigma with anti-human secondary; details: one partner purified

T1 sequence (Q16288 32-839): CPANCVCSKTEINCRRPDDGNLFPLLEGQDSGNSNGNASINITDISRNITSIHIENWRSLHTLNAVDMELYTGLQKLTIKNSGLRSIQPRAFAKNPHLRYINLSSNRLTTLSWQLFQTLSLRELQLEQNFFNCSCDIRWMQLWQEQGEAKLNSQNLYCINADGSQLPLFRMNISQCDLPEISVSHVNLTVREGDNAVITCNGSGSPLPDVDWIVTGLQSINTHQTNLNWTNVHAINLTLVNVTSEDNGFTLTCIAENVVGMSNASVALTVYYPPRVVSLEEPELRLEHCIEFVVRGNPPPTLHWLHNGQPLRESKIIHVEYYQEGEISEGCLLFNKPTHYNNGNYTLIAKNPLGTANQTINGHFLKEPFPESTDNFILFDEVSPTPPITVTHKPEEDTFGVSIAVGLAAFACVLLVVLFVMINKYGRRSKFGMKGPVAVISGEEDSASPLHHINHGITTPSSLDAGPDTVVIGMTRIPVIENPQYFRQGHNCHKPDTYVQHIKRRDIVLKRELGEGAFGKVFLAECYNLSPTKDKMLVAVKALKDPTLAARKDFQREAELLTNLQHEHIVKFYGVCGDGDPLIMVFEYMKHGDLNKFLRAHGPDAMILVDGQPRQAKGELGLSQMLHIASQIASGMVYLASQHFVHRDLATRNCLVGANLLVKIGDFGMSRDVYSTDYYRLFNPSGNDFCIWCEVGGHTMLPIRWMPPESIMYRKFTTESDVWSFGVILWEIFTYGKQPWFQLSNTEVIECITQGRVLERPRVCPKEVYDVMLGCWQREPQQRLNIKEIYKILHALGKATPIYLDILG
Chain of truncated TrkC.T1 receptor (Q16288 32-839): as above
Chain of TrkC-FL D5 (Homo sapiens) (Q16288 300-413): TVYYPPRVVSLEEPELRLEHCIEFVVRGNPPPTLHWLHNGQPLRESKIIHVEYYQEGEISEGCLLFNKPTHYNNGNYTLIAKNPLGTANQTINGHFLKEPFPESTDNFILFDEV
Chain of TrkC ECD (Homo sapiens) (Q16288 32-429): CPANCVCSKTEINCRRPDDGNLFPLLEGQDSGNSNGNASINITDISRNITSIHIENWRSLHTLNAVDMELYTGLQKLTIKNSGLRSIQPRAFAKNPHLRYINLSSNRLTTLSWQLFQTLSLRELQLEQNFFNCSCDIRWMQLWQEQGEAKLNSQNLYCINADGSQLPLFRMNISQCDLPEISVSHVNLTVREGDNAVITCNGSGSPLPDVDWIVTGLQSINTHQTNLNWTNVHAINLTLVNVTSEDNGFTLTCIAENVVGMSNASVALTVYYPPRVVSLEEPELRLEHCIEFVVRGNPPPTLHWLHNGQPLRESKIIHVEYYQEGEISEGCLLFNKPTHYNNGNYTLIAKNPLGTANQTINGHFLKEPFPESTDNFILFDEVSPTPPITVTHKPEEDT

Molecule: NT-3 (from UniProt P20783)
Kd [1]: 0.05 nM

Molecule: PTP-sigma (from UniProt Q13332)
Kd [2]: 9.3 nM

Second part, led by results:

fold associated PDI (PDI/TrkC ratio) against TrkC-FL and TrkC-Δ-ICD [3]: 4 to 6 fold
Molecule: Protein Disulfide Isomerase (PDI) (from UniProt P07237 18-508) (enzyme)

fold-increase in ligand binding over controls (mean fluorescence intensity) [4]: 3.7 fold
fold-increase in ligand binding over controls (mean fluorescence intensity) [7]: 5 fold
B1: ectodomain of PTP-sigma (domain or fragment, UniProt Q13332 30-1282, looked up)
chain: EEPPRFIKEPKDQIGVSGGVASFVCQATGDPKPRVTWNKKGKKVNSQRFETIEFDESAGAVLRIQPLRTPRDENVYECVAQNSVGEITVHAKLTVLREDQLPSGFPNIDMGPQLKVVERTRTATMLCAASGNPDPEITWFKDFLPVDPSASNGRIKQLRSETFESTPIRGALQIESSEETDQGKYECVATNSAGVRYSSPANLYVRELREVRRVAPRFSILPMSHEIMPGGNVNITCVAVGSPMPYVKWMQGAEDLTPEDDMPVGRNVLELTDVKDSANYTCVAMSSLGVIEAVAQITVKSLPKAPGTPMVTENTATSITITWDSGNPDPVSYYVIEYKSKSQDGPYQIKEDITTTRYSIGGLSPNSEYEIWVSAVNSIGQGPPSESVVTRTGEQAPASAPRNVQARMLSATTMIVQWEEPVEPNGLIRGYRVYYTMEPEHPVGNWQKHNVDDSLLTTVGSLLEDETYTVRVLAFTSVGDGPLSDPIQVKTQQGVPGQPMNLRAEARSETSITLSWSPPRQESIIKYELLFREGDHGREVGRTFDPTTSYVVEDLKPNTEYAFRLAARSPQGLGAFTPVVRQRTLQSKPSAPPQDVKCVSVRSTAILVSWRPPPPETHNGALVGYSVRYRPLGSEDPEPKEVNGIPPTTTQILLEALEKWTQYRITTVAHTEVGPGPESSPVVVRTDEDVPSAPPRKVEAEALNATAIRVLWRSPAPGRQHGQIRGYQVHYVRMEGAEARGPPRIKDVMLADAQWETDDTAEYEMVITNLQPETAYSITVAAYTMKGDGARSKPKVVVTKGAVLGRPTLSVQQTPEGSLLARWEPPAGTAEDQVLGYRLQFGREDSTPLATLEFPPSEDRYTASGVHKGATYVFRLAARSRGGLGEEAAEVLSIPEDTPRGHPQILEAAGNASAGTVLLRWLPPVPAERNGAIVKYTVAVREAGALGPARETELPAAAEPGAENALTLQGLKPDTAYDLQVRAHTRRGPGPFSPPVRYRTFLRDQVSPKNFKVKMIMKTSVLLSWEFPDNYNSPTPYKIQYNGLTLDVDGRTTKKLITHLKPHTFYNFVLTNRGSSLGGLQQTVTAWTAFNLLNGKPSVAPKPDADGFIMVYLPDGQSPVPVQSYFIVMVPLRKSRGGQFLTPLGSPEDMDLEELIQDISRLQRRSLRHSRQLEVPRPYIAARFSVLPPTFHPGDQKQYGGFDNRGLEPGHRYVLFVLAVLQKSEPTFAASPFSDPFQLDNPDPQPIVDGEEG
notes: receptor-type tyrosine-protein phosphatase sigma, ectodomain; Probably a human Fc fusion, since it was detected with an anti-human secondary; also called PTP-sigma ectodomain; not shown: Fc (human)
EC50 of bioactivity from dose-response curves (cell survival via TrkC-FL) [5]: 8 nM
cell survival (MTT) of TrkC-FL-expressing cells in serum-free media, efficacy relative to 2 nM NT-3 (100%) [6]: 105 % of 2 nM NT-3

fold-increase in ligand binding over controls (mean fluorescence intensity) [4]: 7 fold
fold-increase in ligand binding over controls (mean fluorescence intensity) [7]: 9 fold
B2: NT-3 (ligand, UniProt P20783 139-257, looked up)
chain: YAEHKSHRGEYSVCDSESLWVTDKSSAIDIRGHQVTVLGEIKTGNSPVKQYFYETRCKEARPVKNGCRGIDDKHWNSQCKTSQTYVRALTSENNKLVGWRWIRIDTSCVCALSRKIGRT
modifications: biotin (NT-3-biotin in the flow cytometry binding assay)
notes: neurotrophin-3, soluble growth factor; also called NT-3-biotin
EC50 of bioactivity from dose-response curves (cell survival via TrkC-FL) [5]: 0.2 nM
